Measured values from US20190092852A1 (Genentech, published 2019).

T1: cyno IL-33 N-His (cynomolgus monkey)
T1 chain: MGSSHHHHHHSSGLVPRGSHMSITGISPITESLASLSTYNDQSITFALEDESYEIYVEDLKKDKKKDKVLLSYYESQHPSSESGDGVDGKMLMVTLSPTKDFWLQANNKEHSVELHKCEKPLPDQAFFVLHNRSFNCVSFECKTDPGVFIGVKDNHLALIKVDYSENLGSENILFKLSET

T2: cynomolgus monkey N-terminal 6-His-tagged and C-terminal Avi-tagged IL-33 (S112-T270) (cynomolgus monkey)
T2 chain: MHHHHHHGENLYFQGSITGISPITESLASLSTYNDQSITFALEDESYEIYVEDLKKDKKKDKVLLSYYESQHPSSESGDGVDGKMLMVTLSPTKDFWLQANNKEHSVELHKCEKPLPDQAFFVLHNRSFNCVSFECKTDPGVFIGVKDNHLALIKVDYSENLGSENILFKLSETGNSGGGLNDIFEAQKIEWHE

T3: biotinylated cyno IL-33 (cynomolgus monkey, UniProt A0A2K5W3I1 112-269, biotin-labeled with EZ-LINK NHS-PEG4-Biotin)
T3 construct: also called biotin-cyIL-33
T3 sequence: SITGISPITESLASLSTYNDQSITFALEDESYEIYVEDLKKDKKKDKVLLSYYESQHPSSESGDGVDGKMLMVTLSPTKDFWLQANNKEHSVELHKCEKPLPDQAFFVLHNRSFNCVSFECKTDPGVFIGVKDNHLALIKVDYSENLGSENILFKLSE

T4: human IL-33 (R&D Systems, #3625-IL-010/CF) (human, UniProt O95760 112-270)
T4 sequence (looked up): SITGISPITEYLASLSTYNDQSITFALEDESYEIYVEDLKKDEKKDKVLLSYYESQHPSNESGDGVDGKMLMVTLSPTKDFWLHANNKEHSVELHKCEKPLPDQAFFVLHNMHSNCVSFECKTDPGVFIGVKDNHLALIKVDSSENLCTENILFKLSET

T5: biotinylated human IL-33 (human, UniProt O95760 112-270, biotin-labeled with EZ-LINK NHS-PEG4-Biotin)
T5 construct: also called biotin-huIL-33
T5 sequence (looked up): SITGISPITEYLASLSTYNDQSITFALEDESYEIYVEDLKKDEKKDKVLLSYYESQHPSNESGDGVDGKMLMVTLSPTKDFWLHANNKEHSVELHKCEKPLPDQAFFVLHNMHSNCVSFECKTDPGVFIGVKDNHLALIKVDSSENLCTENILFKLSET

T6: human ST2L on HEK-BLUE IL-33/IL-1beta cells (human, UniProt Q01638 19-556)
T6 sequence: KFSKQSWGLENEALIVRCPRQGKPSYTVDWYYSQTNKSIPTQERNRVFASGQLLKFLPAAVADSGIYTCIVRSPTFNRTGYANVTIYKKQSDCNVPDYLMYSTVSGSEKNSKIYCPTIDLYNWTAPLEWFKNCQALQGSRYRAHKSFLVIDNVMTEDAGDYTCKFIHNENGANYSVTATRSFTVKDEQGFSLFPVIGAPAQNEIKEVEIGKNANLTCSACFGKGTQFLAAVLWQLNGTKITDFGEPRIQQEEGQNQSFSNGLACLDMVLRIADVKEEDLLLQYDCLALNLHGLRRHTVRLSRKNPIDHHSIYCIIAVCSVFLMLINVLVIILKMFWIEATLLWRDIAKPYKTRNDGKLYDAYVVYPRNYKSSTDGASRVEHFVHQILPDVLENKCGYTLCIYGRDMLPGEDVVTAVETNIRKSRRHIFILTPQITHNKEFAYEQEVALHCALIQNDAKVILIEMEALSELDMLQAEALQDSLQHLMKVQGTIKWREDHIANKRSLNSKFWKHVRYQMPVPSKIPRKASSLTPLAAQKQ


How the values were obtained:
cyno IL-33 N-His [1] = target: T1, cyno IL-33 N-His; test: SPR Biacore T200, 25 C
Procedure, shortened: (§1)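 Antibodies captured via anti-Fc on CM5 chip; IL-33 injected at 3.7–100 nM (three-fold series), 4 min association, 10 min dissociation, 30 μl/min, ADA pH 7.4 buffer with 0.15 M NaCl, EDTA, Tween-20, at 25 °C or 37 °C. KD = koff/kon from 1:1 Langmuir fit; t1/2 = ln(2)/(60*koff).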

[2] = target: T2, cynomolgus monkey N-terminal …; test: cell-based or functional assay
biotinylated cyno IL-33 = target: T3, biotinylated cyno IL-33; test: competitive ELISA, biotin-cyIL-33 to coated hST2-Fc
Method: (§2) The ability of the anti-IL-33 antibody 10C12.38.H6.87Y.58I IgG4 and each anti-IL-33 antibody listed in Table 5 (RG1-RG20) to block either human IL-33 or cyno IL-33 binding to human ST2 receptor was tested in a competitive binding ELISA. Briefly, 1 μg/ml of recombinant human ST2-Fc chimera protein prepared in coating buffer (50 mM sodium carbonate, pH 9.6) was coated on a 384-well MAXISORP® plate (Nalgene Nunc International; Rochester, N.Y.) and incubated overnight at 4° C. On the next day, non-specific binding was blocked with PBS containing 0.5% (w/v) solution of bovine serum albumin (BSA). Fixed concentrations of biotinylated human or cyno IL-33 prepared in assay buffer (25 mM PBS, pH 7.2, 0.1% BSA, 0.05% TWEEN®-20) were mixed with an equal volume of serially-diluted anti-IL-33 antibodies or assay buffer alone and incubated for 1 h at room temperature. The final assay concentrations of biotinylated human IL-33 or cyno IL-33 were 20 pM and 45 pM, respectively, and the final assay concentration of each antibody ranged from 0-300 nM. The pre-mixed solutions were added to the ST2-Fc coated plate and incubated for 1 h at room temperature. The binding of biotinylated IL-33 to coated ST2-Fc was detected by the sequential addition of Streptavidin Poly-HRP80 (Fitzgerald; Buckinghamshire, UK) and 3,3′,5,5′-tetramethyl benzidine (TMB) Microwell Peroxidase Substrate System (KPL; Gaithersburg, Md.). The absorbance (450 nm) was recorded using a […] ASCENT® plate reader (Thermo Scientific; Rockford, Ill.). The binding activity (%) of biotin-IL-33 to ST2 in the presence of anti-IL-33 was plotted as a function of antibody concentration. The data generated were fitted to a four-parameter equation to determine IC₅₀ values for each antibody (FIGS. 25A and 25B) using Prism software (Graphpad Software; La Jolla, Calif.). The maximum blocking (%) of each antibody was calculated as the ratio of the reduction in signal measured in the presence of antibody relative to the difference between the signal with IL-33 alone and background measurements.

[3] = target: T4, human IL-33 (R&D Systems, …); test: cell-based or functional assay
biotinylated human IL-33 = target: T5, biotinylated human IL-33; test: competitive ELISA, biotin-huIL-33 to coated hST2-Fc
Method: as §2

[4] = target: T4, human IL-33 (R&D Systems, …); test: SPR Biacore T200, 25 C
Procedure, shortened: as §1

cyno IL-33 N-His [5] = target: T1, cyno IL-33 N-His; test: SPR Biacore T200, 37 C
Procedure, shortened: as §1

[6] = target: T4, human IL-33 (R&D Systems, …); test: SPR Biacore T200, 37 C
Procedure, shortened: as §1

[7] = target: T4, human IL-33 (R&D Systems, …); test: cell-based or functional assay; remark: listed apart in the source
[8] = target: T4, human IL-33 (R&D Systems, …); test: cell-based or functional assay; remark: listed apart in the source
[9] = target: T6, human ST2L on HEK-BLUE IL-33/IL-1beta …; test: cell-based or functional assay
[10] = target: T2, cynomolgus monkey N-terminal …; test: cell-based or functional assay
[11] = target: T4, human IL-33 (R&D Systems, …); test: cell-based or functional assay; remark: listed apart in the source

Row | Kd (cyno IL-33 N-His [1]) [nM] | koff (cyno IL-33 N-His [1]) [s⁻¹] | kon (cyno IL-33 N-His [1]) [M⁻¹ s⁻¹] | t1/2 (cyno IL-33 N-His [1]) [min] | Ph-p38 MFI at 0.4 nM Ab (500 pM human IL-33, primary basophils) [3] [MFI] | IC50 (biotinylated human IL-33) [nM] | Maximum Blocking (biotinylated human IL-33) [%] | Kd [4] [nM] | koff [4] [s⁻¹] | kon [4] [M⁻¹ s⁻¹] | t1/2 [4] [min] | Kd (cyno IL-33 N-His [5]) [nM] | koff (cyno IL-33 N-His [5]) [s⁻¹] | kon (cyno IL-33 N-His [5]) [M⁻¹ s⁻¹] | t1/2 (cyno IL-33 N-His [5]) [min] | Kd [6] [nM] | koff [6] [s⁻¹] | kon [6] [M⁻¹ s⁻¹] | t1/2 [6] [min] | Ph-p38 MFI at 2 nM Ab (500 pM human IL-33, primary basophils) [7] [MFI] | Binder | also measured
1 | 2.98 | 0.000606 | 203000 | 19 |  |  |  |  |  |  |  |  |  |  |  |  |  |  |  |  | H1M9565N (antibody, V domains shown) VH: QVTLKESGPVLVKPTESLTLTCSVSGFSLSNVRMGVSWIRQSPGKALEWLAHIFSNDEKSYTTSLKTRLTISKDTSRSQVVLTMTDMDPGDTATYYCARIRNLAFNYWGQGTLVTVSS VL: not shown | HEK-BLUE SEAP reporter IC50 [2]: 6.1 nM; IC50 (biotinylated cyno IL-33): 19 nM; Maximum Blocking (biotinylated cyno IL-33): 85%
2 | 0.656 | 7.66e-05 | 117000 | 151 | 119 | 0.099 | 27 | 0.798 | 7.73e-05 | 96900 | 149 | 2.54 | 0.000469 | 185000 | 25 | 4.04 | 0.000522 | 129000 | 22 | 146 | H1M9566N (antibody, IgG1, V domains shown, also called RG2) VH: EVQLLESGGDLVQPGGSLRLSCAASGFTFSSYAMSWVRQAPGKGLEWVSVISGSGSSTDYADSVKGRFTISRDNSRDTLHLQMNSLRAEDTAVYYCAKTFYYFYGLDVWGQGTTVTVSS VL: DIQMTQSPSSLSASLRDRVTITCRASQGISNYLAWYQQKPGKVPKVLIYAASTLQSGVPSRFSGSGSGTVFTLTISSLQTEDVATYYCQKYSSAPFTFGPGTKVDIK | IC50; SEAP reporter (OD 620), HEK-BLUE IL-33/IL-1beta cells, 10 pM hIL-33 [8]: 1.7e-08 M
3 |  |  |  |  |  |  |  |  |  |  |  |  |  |  |  |  |  |  |  |  | Human IL-33 N-His C-Avi (ligand) ligand: MHHHHHHGENLYFQGSITGISPITEYLASLSTYNDQSITFALEDESYEIYVEDLKKDEKKDKVLLSYYESQHPSNESGDGVDGKMLMVTLSPTKDFWLHANNKEHSVELHKCEKPLPDQAFFVLHNMHSNCVSFECKTDPGVFIGVKDNHLALIKVDSSENLCTENILFKLSETGNSGGGLNDIFEAQKIEWHE | EC50 (SEAP reporter OD 620, HEK-BLUE IL-33/IL-1beta cells) [9]: 0.0098 nM
4 | 2.73 | 0.000988 | 362000 | 12 |  |  |  |  |  |  |  | 6.72 | 0.00505 | 751000 | 2 |  |  |  |  |  | H4H9675P (antibody, V domains shown) VH: EVQLVESGGNLEQPGGSLRLSCTASGFTFSRSAMNWVRRAPGKGLEWVSGISGSGGRTYYADSVKGRFTISRDNSKNTLYLQMNSLSAEDTAAYYCAKDSYTTSWYGGMDVWGHGTTVTVSS VL: DIQMTQSPSSVSASVGDRVTITCRASQGIFSWLAWYQQKPGKAPKLLIYAASSLQSGVPSRFSGSGSGTDFTLTISSLQPEDFAIYYCQQANSVPITFGQGTRLEIK | HEK-BLUE SEAP reporter, fold weaker than 10C12.38.H6.87Y.58I IgG4 [2]: 14 fold; IC50; SEAP reporter (OD 620), HEK-BLUE IL-33/IL-1beta cells, 5 pM cyno IL-33 (5pM cIL-33-Nhis) [10]: 5.7e-08 M
5 | 14.9 | 0.00337 | 227000 | 3 | 149 | 1.1 | 68 | 0.941 | 0.000462 | 491000 | 25 | 42.7 | 0.0113 | 265000 | 1 | 0.726 | 0.000845 | 1.16e+06 | 14 | 142 | H4H9633P (antibody, IgG4, V domains shown, also called RG5) VH: EVQLVESGGGLVQPGGSLRLSCAASGFTFSSYVMSWVRQAPGKGLEWVSSISGNGGSTNYADSVKGRFTISRDNSKNTLFLEMNSLRAEDTAVYYCAKSLGTTTTFLGFDYWGQGTLVTVSS VL: DIQMTQSPSSVSASVGDRVTITCRASQGISSWLAWYQQKPGKAPKLLIYAASSLQSGVPSRFSGSGSGTYFTLTISSLQPEDFATYYCQQANSFPLTFGGGTKVEIK | IC50; SEAP reporter (OD 620), HEK-BLUE IL-33/IL-1beta cells, 10 pM hIL-33 [8]: 3.7e-09 M; IC50; IFN-gamma ELISA, primary human NK cells, 260 pM hIL-33 + IL-12 [11]: 4.1e-08 M
6 |  |  |  |  |  |  |  |  |  |  |  |  |  |  |  |  |  |  |  |  | Human IL-33 N-His Biotinylated (ligand, biotinylated, sites not given) ligand: MGSSHHHHHHSSGLVPRGSHMSITGISPITEYLASLSTYNDQSITFALEDESYEIYVEDLKKDEKKDKVLLSYYESQHPSNESGDGVDGKMLMVTLSPTKDFWLHANNKEHSVELHKCEKPLPDQAFFVLHNMHSNCVSFECKTDPGVFIGVKDNHLALIKVDSSENLCTENILFKLSET | EC50 (SEAP reporter OD 620, HEK-BLUE IL-33/IL-1beta cells) [9]: 0.004 nM
